Reference: paper PMC11931385, “Structural and functional analysis of cancer-associated missense variants in the retinoblastoma protein pocket domain” (The Journal of Biological Chemistry, 2025)
No end group written: not given here. TMR = tetramethyl rhodamine dye

What was measured:
Experiment in all cases: fluorescence polarisation; 37 °C, after the 25 °C reading ramped over 7 min to 37 °C and 2 min incubation; unlabeled Rb^P against 1.5 nM TMR-E2F1^TD or 7.5 nM TMR-E7^LxCxE; 25 mM Tris pH 8.0, 200 mM NaCl, 1 mM DTT, 0.1% Tween-20; apparent Kd
Settings in all cases: both partners purified
Rb^P R656Q = target: T1, Rb^P R656Q (human, UniProt P06400 380-788, R656Q)
T1 construct: also called variant 48
T1 sequence (looked up): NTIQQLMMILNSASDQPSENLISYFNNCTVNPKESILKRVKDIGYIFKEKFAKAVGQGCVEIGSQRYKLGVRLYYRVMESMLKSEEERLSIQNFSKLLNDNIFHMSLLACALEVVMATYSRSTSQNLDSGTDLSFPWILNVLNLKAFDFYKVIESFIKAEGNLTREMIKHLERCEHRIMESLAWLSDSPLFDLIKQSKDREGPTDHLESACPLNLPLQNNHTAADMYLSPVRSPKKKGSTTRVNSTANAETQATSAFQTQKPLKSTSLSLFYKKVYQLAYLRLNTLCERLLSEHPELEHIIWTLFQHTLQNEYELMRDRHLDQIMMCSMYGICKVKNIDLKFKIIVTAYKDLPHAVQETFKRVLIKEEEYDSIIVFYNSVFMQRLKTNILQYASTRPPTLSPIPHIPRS

Rb^P T664A = target: T2, Rb^P T664A (human, UniProt P06400 380-788, T664A)
T2 construct: also called variant 50
T2 sequence (looked up): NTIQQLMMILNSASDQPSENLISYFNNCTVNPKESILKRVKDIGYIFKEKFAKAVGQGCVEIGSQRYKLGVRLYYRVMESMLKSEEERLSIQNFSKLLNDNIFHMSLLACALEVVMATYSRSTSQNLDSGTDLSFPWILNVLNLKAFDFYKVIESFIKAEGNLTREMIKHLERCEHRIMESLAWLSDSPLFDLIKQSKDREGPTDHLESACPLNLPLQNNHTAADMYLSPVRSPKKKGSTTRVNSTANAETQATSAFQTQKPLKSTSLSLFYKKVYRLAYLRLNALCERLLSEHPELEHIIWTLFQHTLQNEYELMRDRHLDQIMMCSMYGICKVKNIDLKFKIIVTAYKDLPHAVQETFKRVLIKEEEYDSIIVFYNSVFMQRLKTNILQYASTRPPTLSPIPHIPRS

Rb^P S648T = target: T3, Rb^P S648T (human, UniProt P06400 380-788, S648T)
T3 construct: also called variant 46
T3 sequence (looked up): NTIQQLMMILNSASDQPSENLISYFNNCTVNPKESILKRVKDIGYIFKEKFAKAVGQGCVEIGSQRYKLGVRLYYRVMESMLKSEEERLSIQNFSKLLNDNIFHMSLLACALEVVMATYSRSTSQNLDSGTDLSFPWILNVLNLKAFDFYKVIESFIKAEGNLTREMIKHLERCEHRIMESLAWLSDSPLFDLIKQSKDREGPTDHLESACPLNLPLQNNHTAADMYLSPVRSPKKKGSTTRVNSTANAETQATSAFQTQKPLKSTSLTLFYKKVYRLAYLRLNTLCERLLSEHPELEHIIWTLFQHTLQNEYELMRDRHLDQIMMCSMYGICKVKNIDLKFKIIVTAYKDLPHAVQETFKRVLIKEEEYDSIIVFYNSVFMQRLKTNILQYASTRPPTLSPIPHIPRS

Rb^P R621C = target: T4, Rb^P R621C (human, UniProt P06400 380-788, R621C)
T4 construct: also called variant 41
T4 sequence (looked up): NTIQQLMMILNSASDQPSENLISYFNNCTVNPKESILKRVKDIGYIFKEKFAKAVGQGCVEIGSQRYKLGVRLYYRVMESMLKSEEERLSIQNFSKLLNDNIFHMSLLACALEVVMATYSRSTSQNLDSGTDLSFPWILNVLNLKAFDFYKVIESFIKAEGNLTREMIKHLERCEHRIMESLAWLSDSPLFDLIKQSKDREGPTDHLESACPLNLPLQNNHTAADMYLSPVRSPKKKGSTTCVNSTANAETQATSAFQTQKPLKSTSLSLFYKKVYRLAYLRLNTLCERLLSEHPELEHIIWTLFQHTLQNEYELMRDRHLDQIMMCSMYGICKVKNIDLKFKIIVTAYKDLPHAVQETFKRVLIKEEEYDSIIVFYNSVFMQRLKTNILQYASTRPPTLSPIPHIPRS

Rb^P H555Y = target: T5, Rb^P H555Y (human, UniProt P06400 380-788, H555Y)
T5 construct: also called variant 29
T5 sequence (looked up): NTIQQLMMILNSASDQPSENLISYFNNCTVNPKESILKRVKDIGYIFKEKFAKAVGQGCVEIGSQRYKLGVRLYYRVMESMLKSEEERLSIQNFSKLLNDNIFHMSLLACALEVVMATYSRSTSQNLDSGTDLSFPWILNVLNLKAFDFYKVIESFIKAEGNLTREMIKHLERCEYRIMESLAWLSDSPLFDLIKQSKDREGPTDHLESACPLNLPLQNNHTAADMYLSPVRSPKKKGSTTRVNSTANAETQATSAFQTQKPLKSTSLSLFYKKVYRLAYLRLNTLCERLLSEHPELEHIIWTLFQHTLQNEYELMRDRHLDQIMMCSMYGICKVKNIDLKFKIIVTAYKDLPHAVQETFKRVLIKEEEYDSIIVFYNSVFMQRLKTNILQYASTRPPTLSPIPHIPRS

B1: TMR-E2F1^TD, peptide of the E2F1 transactivation domain (peptide)
peptide: {TMR}-GEGIRDLFDCDFGDLTPLD
notes: also called E2F^TD; source: synthetic peptide, bought: GenScript
Kd (Rb^P R656Q): 325 nM
Kd (Rb^P T664A): 24 nM
Kd (Rb^P S648T): 58 nM
Kd (Rb^P R621C): 43 nM
Kd (Rb^P H555Y): 366 nM

B2: TMR-E7^LxCxE, LxCxE peptide of the E7 oncoprotein from HPV (peptide)
peptide: DLYCYEQLN
modifications: also: TMR label, position not given here
notes: source: synthetic peptide, bought: GenScript
Kd (Rb^P R656Q): 14 nM
Kd (Rb^P T664A): 16 nM
Kd (Rb^P S648T): 14 nM
Kd (Rb^P R621C): 30 nM
Kd (Rb^P H555Y): 32 nM
